# Earlier results, collected in article PMC2919054.
# Target: ILT7 (Homo sapiens) (UniProt P59901)
# Experiment: SPR
# UniProt P59901, sequence (P59901 24-499): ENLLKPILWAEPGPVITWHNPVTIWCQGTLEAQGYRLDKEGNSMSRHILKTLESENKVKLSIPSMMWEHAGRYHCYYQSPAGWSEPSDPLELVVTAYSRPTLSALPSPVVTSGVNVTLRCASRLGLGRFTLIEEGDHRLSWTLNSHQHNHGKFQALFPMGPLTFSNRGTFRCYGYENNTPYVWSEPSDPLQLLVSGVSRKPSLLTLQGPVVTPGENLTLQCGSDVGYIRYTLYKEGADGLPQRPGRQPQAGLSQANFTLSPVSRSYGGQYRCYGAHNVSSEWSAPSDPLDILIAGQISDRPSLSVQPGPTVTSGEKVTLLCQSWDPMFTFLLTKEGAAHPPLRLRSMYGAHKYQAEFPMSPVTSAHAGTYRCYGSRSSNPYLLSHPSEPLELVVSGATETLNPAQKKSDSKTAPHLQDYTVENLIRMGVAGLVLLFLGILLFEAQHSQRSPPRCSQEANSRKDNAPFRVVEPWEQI
substance,measurement,value
BST2 (from UniProt Q10589),Kd,1 µM
